Data on 7 molecules can be found in article PMC5762779, “The peroxisomal AAA-ATPase Pex1/Pex6 unfolds substrates by processive threading” (Nature Communications, 2018).

Common to all, as to conditions: both partners purified
Experiment [1] deals with T1, Pex1-FLAG/His-Pex6 hexamer, wild type (S. cerevisiae, UniProt P24004 1-1043; P33760 1-1030).
T1 construct: Pex1, S. cerevisiae W303; Pex6, S. cerevisiae W303; Heterohexamer with alternating subunits; also called WT Pex1/Pex6; Pex1/Pex6; source: E. coli BL21*, co-expressed, purified (Ni-NTA, anti-FLAG, Superose6); copies: 3 + 3
Kind of experiment: inhibition of ATPase activity (ATP/NADH coupled enzyme assay); apparent KD from the concentration-dependent inhibition of the ATPase activity of 5 nM Pex1/Pex6 by titrated Pex15; 5 mM ATP, 2 uM BSA; n = 3 technical replicates.

Experiment [2] concerns the target T2, Pex1-WB2/Pex6-WB2 mutant hexamer (Pex1-E798Q-Strep/His-Pex6-E832Q) (S. cerevisiae, UniProt P24004 1-1043; P33760 1-1030, E798Q | E832Q).
T2 construct: Pex1, S. cerevisiae W303, Walker B D2 mutant; Pex6, S. cerevisiae W303, Walker B D2 mutant; also called Pex1-WB/Pex6-WB; ATPase-deficient Pex1/Pex6; source: E. coli BL21*, co-expressed, purified (Ni-NTA, Streptactin); copies: 3 + 3
Description: pull-down; MBP-Pex15 1-309 or MBP-Pex15 1-253 with Pex1-WB2/Pex6-WB2; maltose elution, SDS-PAGE.

Experiment [3] deals with T3, fluorescein labeled Pex5 (S. cerevisiae, UniProt P35056 1-612, fluorescein (FAM) on a GGGK peptide joined by sortase at the C-terminal LPETGG site).
T3 construct: Pex5, S. cerevisiae W303; after labelling the chain ends LPET-GGGK-FAM; also called Pex5-FAM; source: E. coli BL21*, purified (Ni-NTA, anti-FLAG, Superdex 200), labelled with sortase and GGGK-FAM peptide; not shown: His6, C-terminal, cleaved
T3 sequence (looked up): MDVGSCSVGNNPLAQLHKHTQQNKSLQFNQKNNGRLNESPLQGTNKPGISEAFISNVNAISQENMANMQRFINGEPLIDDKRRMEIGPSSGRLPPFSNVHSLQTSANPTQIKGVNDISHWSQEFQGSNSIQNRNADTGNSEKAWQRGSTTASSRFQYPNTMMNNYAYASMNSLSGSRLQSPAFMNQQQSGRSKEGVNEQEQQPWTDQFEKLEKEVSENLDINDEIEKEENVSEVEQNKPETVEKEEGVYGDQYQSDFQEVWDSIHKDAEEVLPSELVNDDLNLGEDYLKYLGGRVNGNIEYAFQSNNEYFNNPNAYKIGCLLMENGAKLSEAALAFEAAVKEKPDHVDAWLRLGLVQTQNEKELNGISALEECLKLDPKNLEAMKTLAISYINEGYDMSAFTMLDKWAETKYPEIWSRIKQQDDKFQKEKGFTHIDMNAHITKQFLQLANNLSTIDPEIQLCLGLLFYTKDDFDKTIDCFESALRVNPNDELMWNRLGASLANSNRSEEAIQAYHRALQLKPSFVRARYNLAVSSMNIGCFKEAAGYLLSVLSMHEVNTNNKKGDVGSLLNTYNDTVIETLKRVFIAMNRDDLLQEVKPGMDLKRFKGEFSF
Kind of experiment: pull-down; MBP-Pex6/Pex1 or MBP-Pex15 1-327 on magnetic amylose resin with Pex5-FAM; same conditions as Figure 7B (350 nM Pex5-FAM, 1 h, 4 °C, 60 mM HEPES pH 7.6, 150 mM NaCl, 150 mM KCl, 10% glycerol, 0.05% Tween-20, 10 mM MgCl2, 0.5 mM EDTA, 5 mM ATP); maltose elution; Pex5 seen by its fluorescein.

For experiment [4], the target named is T4, His-Pex6-FLAG (S. cerevisiae, UniProt P33760 1-1030).
T4 construct: Pex6, S. cerevisiae W303, purified individually; not shown: His, N-terminal, kept; FLAG, C-terminal, kept
T4 sequence (looked up): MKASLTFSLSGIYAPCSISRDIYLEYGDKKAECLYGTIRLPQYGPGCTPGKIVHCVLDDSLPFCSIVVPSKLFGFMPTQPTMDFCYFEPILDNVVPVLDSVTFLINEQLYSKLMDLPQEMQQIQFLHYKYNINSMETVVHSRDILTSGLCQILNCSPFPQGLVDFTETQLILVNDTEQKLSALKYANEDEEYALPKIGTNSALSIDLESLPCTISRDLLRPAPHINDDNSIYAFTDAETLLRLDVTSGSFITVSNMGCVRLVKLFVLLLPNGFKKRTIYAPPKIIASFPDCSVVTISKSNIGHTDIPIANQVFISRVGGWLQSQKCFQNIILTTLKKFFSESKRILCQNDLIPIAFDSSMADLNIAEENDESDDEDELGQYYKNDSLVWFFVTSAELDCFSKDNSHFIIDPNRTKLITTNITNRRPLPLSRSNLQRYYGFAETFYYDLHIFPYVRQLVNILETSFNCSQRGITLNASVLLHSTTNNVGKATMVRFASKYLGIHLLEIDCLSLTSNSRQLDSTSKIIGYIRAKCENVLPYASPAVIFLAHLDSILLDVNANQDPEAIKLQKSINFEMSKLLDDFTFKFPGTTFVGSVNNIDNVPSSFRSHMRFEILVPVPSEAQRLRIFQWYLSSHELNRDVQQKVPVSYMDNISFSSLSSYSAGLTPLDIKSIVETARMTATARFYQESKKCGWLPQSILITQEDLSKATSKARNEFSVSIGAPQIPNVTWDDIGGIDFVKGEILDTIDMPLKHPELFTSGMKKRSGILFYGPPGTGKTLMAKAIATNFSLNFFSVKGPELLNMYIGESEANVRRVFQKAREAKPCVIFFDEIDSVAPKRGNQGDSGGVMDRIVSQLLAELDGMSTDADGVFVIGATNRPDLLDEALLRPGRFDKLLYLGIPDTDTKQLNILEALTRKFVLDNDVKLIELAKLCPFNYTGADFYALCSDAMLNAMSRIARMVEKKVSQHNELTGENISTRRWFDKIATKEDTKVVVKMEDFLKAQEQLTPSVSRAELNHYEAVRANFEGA
Description: pull-down; 1 uM MBP-Pex15 1-327-FLAG-His on magnetic amylose resin with 0.5 uM Pex1-Strep/His-Pex6 hexamer, His-Pex1-FLAG, His-Pex6-FLAG or 5 uM His-Pex6 1-215; 1 h, 4 °C, 60 mM HEPES pH 7.6, 150 mM NaCl, 150 mM KCl, 10% glycerol, 0.05% Tween-20, 10 mM MgCl2, 0.5 mM EDTA, 5 mM ATP; maltose elution; SYPRO-Ruby or anti-His blot.

T1 sequence (P24004 whole entry, chain 1 of 2, one chain of several): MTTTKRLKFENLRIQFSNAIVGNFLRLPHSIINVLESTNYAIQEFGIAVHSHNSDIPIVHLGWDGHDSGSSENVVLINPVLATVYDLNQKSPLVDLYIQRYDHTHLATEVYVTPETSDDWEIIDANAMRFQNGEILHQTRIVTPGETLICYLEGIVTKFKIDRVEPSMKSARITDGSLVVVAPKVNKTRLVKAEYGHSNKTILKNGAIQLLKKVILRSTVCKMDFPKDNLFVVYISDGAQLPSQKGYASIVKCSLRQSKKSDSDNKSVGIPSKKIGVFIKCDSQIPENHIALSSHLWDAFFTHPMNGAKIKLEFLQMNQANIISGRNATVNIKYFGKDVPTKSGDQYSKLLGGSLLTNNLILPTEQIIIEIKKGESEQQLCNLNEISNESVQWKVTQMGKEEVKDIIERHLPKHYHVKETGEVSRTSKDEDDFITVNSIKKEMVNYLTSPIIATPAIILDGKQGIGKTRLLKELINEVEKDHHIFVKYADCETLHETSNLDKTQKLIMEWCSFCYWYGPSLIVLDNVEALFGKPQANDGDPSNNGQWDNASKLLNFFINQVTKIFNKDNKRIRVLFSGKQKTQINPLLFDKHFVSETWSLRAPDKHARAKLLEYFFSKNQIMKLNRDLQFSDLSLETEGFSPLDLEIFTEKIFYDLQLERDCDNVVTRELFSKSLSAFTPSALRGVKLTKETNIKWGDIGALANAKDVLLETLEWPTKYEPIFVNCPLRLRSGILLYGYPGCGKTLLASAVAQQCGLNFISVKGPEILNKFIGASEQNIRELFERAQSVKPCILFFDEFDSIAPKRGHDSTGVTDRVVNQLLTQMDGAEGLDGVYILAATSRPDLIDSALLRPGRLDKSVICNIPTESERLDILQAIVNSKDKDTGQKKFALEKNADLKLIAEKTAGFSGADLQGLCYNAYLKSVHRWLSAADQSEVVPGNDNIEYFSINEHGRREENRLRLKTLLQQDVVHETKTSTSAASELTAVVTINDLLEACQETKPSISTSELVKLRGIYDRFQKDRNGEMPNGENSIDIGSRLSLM
T2 sequence (P24004 whole entry E798Q, one chain of several): as the sequence (P24004 whole entry, chain 1 of 2, one chain of several) above, with E798Q counted along it

B1: Pex15 12-309 (domain or fragment, S. cerevisiae, UniProt Q08215 12-309, looked up)
chain: MHSLDSSLRDLLNDDLFIESDESTKSVNDQRSEVFQECVNLFIKRDIKDCLEKMSEVGFIDITVFKSNPMILDLFVSACDIMPSFTKLGLTLQSEILNIFTLDTPQCIETRKIILGDLSKLLVINKFFRCCIKVIQFNLTDHTEQEEKTLELESIMSDFIFVYITKMRTTIDVVGLQELIEIFIFQVKVKLHHKKPSPNMYWALCKTLPKLSPTLKGLYLSKDVSIEDAILNSIDNKIQKDKAKSKGKQRGVKQKIHHFHEPMLHNSSEEQVKVEDAFNQRTSTDSRLQSTGTAPRKK
notes: begins at M12 (primer 'Pex15 M12 forward', D1:p20); source: E. coli BL21*, purified (Ni-NTA, tag cleaved with PreScission protease, Superdex 200); not shown: His, C-terminal, cleaved
With B1, the Kd in experiment [1] worked out at 0.86 µM.

B2: MBP-Pex15 1-253 (domain or fragment, S. cerevisiae, UniProt Q08215 1-253, looked up)
chain: MAASEIMNNLPMHSLDSSLRDLLNDDLFIESDESTKSVNDQRSEVFQECVNLFIKRDIKDCLEKMSEVGFIDITVFKSNPMILDLFVSACDIMPSFTKLGLTLQSEILNIFTLDTPQCIETRKIILGDLSKLLVINKFFRCCIKVIQFNLTDHTEQEEKTLELESIMSDFIFVYITKMRTTIDVVGLQELIEIFIFQVKVKLHHKKPSPNMYWALCKTLPKLSPTLKGLYLSKDVSIEDAILNSIDNKIQKDK
notes: not shown: MBP, N-terminal, kept
Take B2: the binding result in experiment [2] is “binds”.

B3: Pex15 1-309 L22A L23A (domain or fragment, S. cerevisiae, UniProt Q08215 1-309, looked up)
chain: MAASEIMNNLPMHSLDSSLRDAANDDLFIESDESTKSVNDQRSEVFQECVNLFIKRDIKDCLEKMSEVGFIDITVFKSNPMILDLFVSACDIMPSFTKLGLTLQSEILNIFTLDTPQCIETRKIILGDLSKLLVINKFFRCCIKVIQFNLTDHTEQEEKTLELESIMSDFIFVYITKMRTTIDVVGLQELIEIFIFQVKVKLHHKKPSPNMYWALCKTLPKLSPTLKGLYLSKDVSIEDAILNSIDNKIQKDKAKSKGKQRGVKQKIHHFHEPMLHNSSEEQVKVEDAFNQRTSTDSRLQSTGTAPRKK
notes: also called Pex15 L22AL23A; source: E. coli BL21*, purified (Ni-NTA, tag cleaved with PreScission protease, Superdex 200); not shown: His, C-terminal, cleaved
In the case of B3, the Kd in experiment [1] was found to be 8.7 µM.

B4: MBP-Pex15 1-309 (domain or fragment, S. cerevisiae, UniProt Q08215 1-309, looked up)
chain: MAASEIMNNLPMHSLDSSLRDLLNDDLFIESDESTKSVNDQRSEVFQECVNLFIKRDIKDCLEKMSEVGFIDITVFKSNPMILDLFVSACDIMPSFTKLGLTLQSEILNIFTLDTPQCIETRKIILGDLSKLLVINKFFRCCIKVIQFNLTDHTEQEEKTLELESIMSDFIFVYITKMRTTIDVVGLQELIEIFIFQVKVKLHHKKPSPNMYWALCKTLPKLSPTLKGLYLSKDVSIEDAILNSIDNKIQKDKAKSKGKQRGVKQKIHHFHEPMLHNSSEEQVKVEDAFNQRTSTDSRLQSTGTAPRKK
notes: as for B2
As to B4, the binding result in experiment [2] is recorded as “binds”.

B5: MBP-Pex15 1-327-FLAG-His (domain or fragment, S. cerevisiae, UniProt Q08215 1-327, looked up)
chain: MAASEIMNNLPMHSLDSSLRDLLNDDLFIESDESTKSVNDQRSEVFQECVNLFIKRDIKDCLEKMSEVGFIDITVFKSNPMILDLFVSACDIMPSFTKLGLTLQSEILNIFTLDTPQCIETRKIILGDLSKLLVINKFFRCCIKVIQFNLTDHTEQEEKTLELESIMSDFIFVYITKMRTTIDVVGLQELIEIFIFQVKVKLHHKKPSPNMYWALCKTLPKLSPTLKGLYLSKDVSIEDAILNSIDNKIQKDKAKSKGKQRGVKQKIHHFHEPMLHNSSEEQVKVEDAFNQRTSTDSRLQSTGTAPRKKNNDITVLAGSFWAVLKHH
notes: Pex15, S. cerevisiae W303, cytosolic domain, residues 1-327; Held on magnetic amylose resin by its MBP; not shown: MBP, N-terminal, kept; FLAG, C-terminal, kept; His, C-terminal, kept
As to B5, the binding result in experiment [3] and in experiment [4] was “binds” in each case.

B6: Pex15 43-309 (domain or fragment, S. cerevisiae, UniProt Q08215 43-309, looked up)
chain: SEVFQECVNLFIKRDIKDCLEKMSEVGFIDITVFKSNPMILDLFVSACDIMPSFTKLGLTLQSEILNIFTLDTPQCIETRKIILGDLSKLLVINKFFRCCIKVIQFNLTDHTEQEEKTLELESIMSDFIFVYITKMRTTIDVVGLQELIEIFIFQVKVKLHHKKPSPNMYWALCKTLPKLSPTLKGLYLSKDVSIEDAILNSIDNKIQKDKAKSKGKQRGVKQKIHHFHEPMLHNSSEEQVKVEDAFNQRTSTDSRLQSTGTAPRKK
notes: begins at S43 (primer 'Pex15 S43 forward', D1:p20); source: E. coli BL21*, purified (Ni-NTA, tag cleaved with PreScission protease, Superdex 200); not shown: His, C-terminal, cleaved
Take B6: the Kd in experiment [1] is 5.6 µM.

B7: Pex15 30-309 (domain or fragment, S. cerevisiae, UniProt Q08215 30-309, looked up)
chain: ESDESTKSVNDQRSEVFQECVNLFIKRDIKDCLEKMSEVGFIDITVFKSNPMILDLFVSACDIMPSFTKLGLTLQSEILNIFTLDTPQCIETRKIILGDLSKLLVINKFFRCCIKVIQFNLTDHTEQEEKTLELESIMSDFIFVYITKMRTTIDVVGLQELIEIFIFQVKVKLHHKKPSPNMYWALCKTLPKLSPTLKGLYLSKDVSIEDAILNSIDNKIQKDKAKSKGKQRGVKQKIHHFHEPMLHNSSEEQVKVEDAFNQRTSTDSRLQSTGTAPRKK
notes: begins at E30 (primer 'Pex15 E30 forward', D1:p20); source: E. coli BL21*, purified (Ni-NTA, tag cleaved with PreScission protease, Superdex 200); not shown: His, C-terminal, cleaved
B7: the Kd in experiment [1] was 5.3 µM.
